We go through four molecules from patent publication US20250313631A1 (HUMMINGBIRD BIOSCIENCE PTE, published 2025).

For experiment [1], the target named is T1, human B7H7 (human, UniProt Q9UM44 23-344).
T1 construct: also called HHLA2
T1 sequence (looked up): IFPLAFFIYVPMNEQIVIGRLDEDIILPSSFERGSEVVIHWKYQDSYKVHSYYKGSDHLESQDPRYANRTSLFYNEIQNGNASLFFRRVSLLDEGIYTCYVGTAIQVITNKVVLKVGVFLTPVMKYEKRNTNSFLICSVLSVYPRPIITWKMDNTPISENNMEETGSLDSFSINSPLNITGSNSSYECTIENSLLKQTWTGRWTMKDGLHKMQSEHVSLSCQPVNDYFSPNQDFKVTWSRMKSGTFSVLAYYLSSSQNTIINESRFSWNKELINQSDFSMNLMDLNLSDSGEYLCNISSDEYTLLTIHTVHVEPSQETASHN
Nature of the experiment: ELISA, plate coated with the antigen.

For experiment [2], the target named is human CTLA4 (human, UniProt P16410 36-162). Description: ELISA, plate coated with the antigen.
The target of experiment [3] is T2, recombinant human VISTA (His-tagged) (human, UniProt Q9H7M9 33-194).
T2 construct: bought soluble protein (Sino Biological); also called hVISTA; human VISTA polypeptide
Description: ELISA, plate coated with human VISTA.

In experiment [4] the target is T2, recombinant human VISTA (His-tagged). Nature of the experiment: BLI (Octet), 1:1 global fit, His-tagged human VISTA captured.
In experiment [5] the target is T3, VISTA-Fc (UniProt Q9H7M9 33-194).
T3 construct: also called VISTA-Ig; not shown: Fc/Ig part not described
Description: competition ELISA: VISTA-Fc coated, VSIG3-His 0.3 ug/ml as the blocked ligand, anti-His-HRP detection.

Experiment [6] addresses T2, recombinant human VISTA (His-tagged). Description: antigen-binding ELISA, day 30 at 40°C.
The target is the same in experiment [7]. Description: ELISA, VISTA-HIS protein coated; ELISA, human VISTA-HIS.
In experiment [8] the target is T4, recombinant mouse VISTA (His-tagged) (mouse, UniProt Q9D659 33-191).
T4 construct: also called murine VISTA; mVISTA
T4 sequence (looked up): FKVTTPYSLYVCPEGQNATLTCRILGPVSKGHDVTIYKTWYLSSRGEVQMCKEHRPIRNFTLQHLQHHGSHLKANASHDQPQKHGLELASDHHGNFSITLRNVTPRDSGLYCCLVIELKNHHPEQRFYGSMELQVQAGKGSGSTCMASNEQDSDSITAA
Nature of the experiment: ELISA, VISTA-HIS protein coated; ELISA, mouse VISTA-HIS.

Experiment [9] has as its target T2, recombinant human VISTA (His-tagged). Nature of the experiment: antigen-binding ELISA; HMBD-002 in F4, day 20 at 40°C.
Experiment [10] has the same target. Description: antigen-binding ELISA; HMBD-002 in F4, day 30 at 40°C.
For experiment [11] the target is unchanged. Description: antigen-binding ELISA; HMBD-002 in F8, day 30 at 40°C.
Experiment [12] has the same target. Description: antigen-binding ELISA; HMBD-002 in F10, day 20 at 40°C.
Experiment [13] addresses T5, cynomolgus macaque VISTA expressed on cells (cynomolgus macaque, UniProt A0A7N9IB00 33-311).
T5 construct: whole, on cells; also called NHP VISTA on HEK293T cells; VISTA on NHP CD11b+ myeloid cells
Nature of the experiment: flow cytometry, endogenous VISTA on CD11b+ myeloid cells of NHP PBMCs.

In experiment [14] the target is human PD-1 (human, UniProt Q15116 25-167). Description: ELISA, plate coated with human PD-1, antibody titrated.
In experiment [15] the target is T2, recombinant human VISTA (His-tagged). Nature of the experiment: antigen-binding ELISA; reference standard run with the day 10 samples.
For experiment [16] the target is unchanged. Nature of the experiment: ELISA, plate coated with human B7H5 (VISTA), antibody titrated.
The target of experiment [17] is T6, recombinant rat VISTA (His-tagged) (rat, UniProt A0ABK0L5H3 33-192).
T6 sequence: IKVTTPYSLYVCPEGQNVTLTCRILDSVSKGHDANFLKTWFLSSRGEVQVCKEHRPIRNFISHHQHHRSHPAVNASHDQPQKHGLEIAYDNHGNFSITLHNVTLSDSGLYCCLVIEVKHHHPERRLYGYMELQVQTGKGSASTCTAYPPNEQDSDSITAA
Description: SPR (Biacore), VISTA-HIS captured, antibody as analyte, 1:1 model; SPR (Biacore), rat VISTA.

The target of experiment [18] is T4, recombinant mouse VISTA (His-tagged). Nature of the experiment: SPR (Biacore), VISTA-HIS captured, antibody as analyte, 1:1 model; SPR (Biacore), mouse VISTA.
The target in experiment [19] is T7, recombinant cynomolgus macaque VISTA (His-tagged) (cynomolgus macaque, UniProt A0A7N9IB00 33-194).
T7 construct: also called cyno VISTA; cynomolgus monkey VISTA
Nature of the experiment: SPR (Biacore), NHP VISTA-HIS captured, antibody as analyte, 1:1 model; SPR (Biacore), NHP (cynomolgus) VISTA.

B1: anti-VISTA clone V4-C24 IgG1 (antibody, V domains shown)
VH: QVQLQESGPGLVKPSDTLSLTCTVSGYSITSDYTWNWIRQTPGKGLEWIGHITYSGSVSYNPSLRSRVTISRDTSKNQFSLKLSSVTAADTATYSCARALYYPWYFDVWGTGTTVTVSS
VL: EIVLTQSPATLSLSPGERATLSCRASSSVGYIHWYQQKPGQAPRPLIYTTSYRATGIPARFSGSGSGTDNTLTISSLEPEDSAVYYCQQWSSYPPITFGGGTKLEVKR
In the case of B1, the binding result in experiment [1] and in [2] was “no binding (tested: log -7.5 M)” throughout.

B2: anti-VISTA clone V4-C26 IgG1 (antibody)
heavy: not shown
light: EIVLTQSPATLSLSPGERATLSCRASSSVGYIHWYQQKPGQAPRPIIYTTSNRATGIPARFSGSGSGTDNTLTISSLEPEDSAVYYCQQWSSYPPITFGGGTKLEVKRTVAAPSVFIFPPSDEQLKSGTASVVCLLNNFYPREAKVQWKVDNALQSGNSQESVTEQDSKDSTYSLSSTLTLSKADYEKHKVYACEVTHQGLSSPVTKSFNRGEC
For the molecule B2, the “EC50 (read off the curve)” value in [3] was approximately 0.01 nM.

B3: anti-VISTA clone 4M2-C12 IgG1 (antibody)
heavy: not shown
light: DIVITQTPAILSTSPGEKVTMTCRASSSVGYIHWYQQKPGSSPKPWIYATSNLASGVPARFSGSGSGTSNSLTITRVEAEDAATYYCQQWSSYPPITFGGGTKLEVKRTVAAPSVFIFPPSDEQLKSGTASVVCLLNNFYPREAKVQWKVDNALQSGNSQESVTEQDSKDSTYSLSSTLTLSKADYEKHKVYACEVTHQGLSSPVTKSFNRGEC
notes: mouse variable regions on human IgG1/kappa constant regions; also called V4; V4pr
Consider B3, for which, in experiment [4], the Kd is less than 0.001 nM, the koff was less than 1e-07 s⁻¹ and the association rate constant (kon) was 128000 M⁻¹ s⁻¹. The “IC50 (read off the curve)” value in experiment [5] is approximately 4 nM.

B4: V4-C26 hIgG4 (antibody)
heavy: not shown
light: B2 light
notes: human IgG4 (S228P)/kappa format; also called HMBD-002; HMBD-002-V4C26
As to B4, in experiment [6], the “fold increase in affinity” value stood at 1.65 fold. For the same molecule, the concentration giving a half-maximal response (EC50) in experiment [7] was determined as 0.00512 nM; in [8], 0.00355 nM; in [9] it was 0.0205 nM; in experiment [10] it was 0.0227 nM; in experiment [11], 0.0227 nM; in [12], 0.0235 nM. Besides, the EC50 worked out at 67.6 nM in experiment [13] and 0.0253 nM in experiment [15]. In addition, the binding result in experiment [14] is “no binding (tested: about 3e-8 M)”. The “EC50 (read off the curve)” value in [16] was approximately 0.01 nM. In addition, the dissociation constant Kd in experiment [17] was 0.382 nM; in experiment [18] it was 0.549 nM; in experiment [19], 0.367 nM.
